Measured values reported in patent publication US20230257470A1 (published 2023).
Numbering of substitutions follows the chain as printed. Names may count otherwise. Each block holds one binder with its values, some of them ahead of it.

Columns and labels:
[1] = target: T1, human FcγRIIa(R) (allotype R131) (human, UniProt P12318 36-217); test: SPR (Biacore), antibody captured by Protein L, FcγR as analyte, pH 7.4, 25 C;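 further: Buffer-blank-subtracted FcγR response, normalized to the captured antibody level and scaled to 1500 RU of captured antibody, CM4 chip, ACES-NaCl running buffer with polysorbate 20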
T1 construct: Soluble analyte in SPR; also called hFcgRIIa(R); FcgRIIaR
T1 chain: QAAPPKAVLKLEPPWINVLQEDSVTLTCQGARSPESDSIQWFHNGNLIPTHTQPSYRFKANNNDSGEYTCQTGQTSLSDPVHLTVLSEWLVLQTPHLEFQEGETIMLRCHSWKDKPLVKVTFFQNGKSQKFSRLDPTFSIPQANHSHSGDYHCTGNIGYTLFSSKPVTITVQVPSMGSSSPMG
Protocol: (§1) Binding activity between the antibodies and human FcγRIa, FcγRIIa(H), FcγRIIa(R), FcγRIIb and FcγRIIIa(F) (hereinafter referred to as human FcγRs) was evaluated using the BIACORE™ T100 or T200 surface plasmon resonance system (GE Healthcare). The antibodies being tested were captured by Protein L (ACTIGEN® protein (Alltech)) that was immobilized in suitable amounts on the CM4 Sensor Chip (GE Healthcare) by amine coupling. Next, the diluted human FcγRs and a running buffer used as a blank were injected to allow interaction with the antibodies captured on the sensor chip. A buffer consisting of 20 mmol/L N-(2-acetamido)-2-aminoethanesulfonic acid (ACES), 150 mmol/L NaCl and 0.05% (w/v) polysorbate 20 (Tween 20®) (pH 7.4) was used for the running buffer, and this buffer was also used to dilute the human FcγRs. 10 mmol/L glycine-HCl (pH 1.5) was used to regenerate the sensor chip. All measurements were carried out at 25° C.
(§2) Binding activity to human FcγRs can be represented by the relative binding activity to human FcγRs. Antibody was captured by Protein L, and the amount of change in a sensorgram before and after the antibody was captured was defined as X1. Next, human FcγRs were allowed to interact with the antibody, and the value obtained by subtracting binding activity of human FcγRs represented as the amount of change in a sensorgram before and after allowing the running buffer to interact with antibody captured by Protein L (ΔA2) from the value obtained by multiplying by 1500 the value obtained by dividing the binding activity of human FcγRs represented as the amount of change in a sensorgram before and after that interaction (ΔA1) by the captured amount (X) of each antibody, was divided by the captured amount of each antibody (X) followed by multiplying by 1500 to obtain the binding activity of the human FcγRs (Y) (Equation 2).

[2] = target: T2, human FcγRIa (human, UniProt P12314 16-292, limits assumed); test: as above
T2 construct: Soluble analyte in SPR; also called hFcgRIa; FcgRIa
T2 sequence (P12314 16-292 limits assumed): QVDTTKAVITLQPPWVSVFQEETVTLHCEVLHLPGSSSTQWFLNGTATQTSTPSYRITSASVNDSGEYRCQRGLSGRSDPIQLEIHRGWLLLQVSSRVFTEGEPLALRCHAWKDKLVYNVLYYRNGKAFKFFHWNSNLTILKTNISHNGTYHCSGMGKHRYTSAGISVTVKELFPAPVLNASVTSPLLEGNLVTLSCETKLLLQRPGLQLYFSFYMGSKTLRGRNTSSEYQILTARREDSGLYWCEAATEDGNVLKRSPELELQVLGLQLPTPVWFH
Protocol: as §1, §2

[3] = target: T3, human FcγRIIb (human, UniProt P31994 43-217, limits assumed); test: as above
T3 construct: Soluble analyte in SPR; also called hFcgRIIb; FcgRIIb
T3 sequence: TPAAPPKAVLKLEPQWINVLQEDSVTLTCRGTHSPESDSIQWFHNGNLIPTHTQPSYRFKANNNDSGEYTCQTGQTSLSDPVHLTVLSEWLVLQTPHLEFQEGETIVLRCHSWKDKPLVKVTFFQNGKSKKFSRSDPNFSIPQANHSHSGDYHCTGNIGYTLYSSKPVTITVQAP
Protocol: as §1, §2

[4] = target: T4, human FcγRIIIa(F) (allotype F158) (human, UniProt P08637 17-208, limits assumed); test: as above
T4 construct: also called hFcgRIIIa(F); FcgRIIIaF
T4 sequence (P08637 other isoform, or with tags, fused parts or gaps limits assumed): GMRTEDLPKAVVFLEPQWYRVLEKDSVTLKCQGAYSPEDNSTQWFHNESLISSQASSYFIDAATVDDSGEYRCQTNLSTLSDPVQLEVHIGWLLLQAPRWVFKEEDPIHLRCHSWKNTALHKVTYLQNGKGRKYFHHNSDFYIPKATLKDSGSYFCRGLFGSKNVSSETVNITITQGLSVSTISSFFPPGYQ
Protocol: as §1, §2

[5] = target: T5, human FcγRIIIa(V) (allotype V158) (human, UniProt P08637 17-208, limits assumed); test: as above
T5 construct: also called hFcgRIIIa(V)
T5 sequence (P08637 other isoform, or with tags, fused parts or gaps limits assumed): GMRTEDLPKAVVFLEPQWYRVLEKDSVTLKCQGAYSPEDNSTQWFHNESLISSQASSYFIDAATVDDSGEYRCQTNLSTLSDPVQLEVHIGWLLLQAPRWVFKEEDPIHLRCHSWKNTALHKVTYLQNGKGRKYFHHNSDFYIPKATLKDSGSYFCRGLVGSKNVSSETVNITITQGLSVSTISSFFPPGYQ
Protocol: as §1, §2

[6] = target: T6, human FcγRIIa(H) (allotype H131) (human, UniProt P12318 36-217); test: as above
T6 construct: Soluble analyte in SPR; also called hFcgRIIa(H); FcgRIIaH
T6 sequence: T1 chain with R133H
Protocol: as §1, §2

[7] = target: T7, human FcγRIIa type R (human, UniProt P12318 36-217); test: SPR (Biacore), captured antibody, FcγR as analyte; binding amount divided by that of IL6R-F652/IL6R-L, times 100
T7 construct: also called FcγRIIaR; Fc γ RIIaR
T7 chain: T1 chain

[8] = target: T8, human FcγRIIb (human, UniProt P31994 43-217); test: as above
T8 construct: also called FcγIIB
T8 sequence: T3 sequence

[9] = target: T9, human FcγRIIb (human, UniProt P31994 43-217, limits assumed); test: ratio of SPR KD values: KD for FcγRIIaR divided by KD for FcγRIIb
T9 construct: Whole entry (AAI46679.1); also called FcγIIB; FcgRIIb
T9 sequence: T3 sequence
Protocol: Next, interaction between these antibodies and FcγR was analyzed kinetically using the BIACORE™ T100 (GE Healthcare). The interaction was measured at a temperature of 25° C. using HBS-EP+ (GE Healthcare) for the running buffer. The Series S Sensor Chip CM5 (GE Healthcare) was used after immobilizing Protein A by amine coupling. […] Antibody captured on the chip was washed by allowing 10 mM glycine-HCl (pH 1.5) to react following measurement. The chip regenerated in this manner was used repeatedly. The dissociation constant KD (mol/L) was calculated from the association rate constant ka (L/mol/s) and dissociation rate constant kd (1/s) as calculated by global-fitting the measurement results with a 1:1 Langmuir binding model using the BIACORE™ Evaluation Software.
Furthermore, KD(IIaR)/KD(IIb) and KD(IIaH)/KD(IIb) in the table respectively represent the value obtained by dividing the KD value of each variant for FcγRIIaR by the KD value of each variant for FcγRIIb, and the value obtained by dividing the KD value of each variant for FcγRIIaH by the KD value of each variant for FcγRIIb.

B1: antibody containing VH3-IgG4-F890 for the heavy chain and L(WT)-CK for the light chain (antibody)
heavy: QVQLQESGPGLVKPSETLSLTCAVSGHSISHDHAWSWVRQPPGEGLEWIGFISYSGITNYNPSLQGRVTISRDNSKNTLYLQMNSLRAEDTAVYYCARSLARTTAMDYWGEGTLVTVSSASTKGPSVFPLAPCSRSTSESTAALGCLVKDYFPEPVTVSWNSGALTSGVHTFPAVLQSSGLYSLSSVVTVPSSSLGTKTYTCNVDHKPSNTKVDKRVESKYGPPCPPCPAPEFLGGPSVFLFPPKPKDTLYISRTPEVTCVVVDVSQEDPEVQFNWYVDGVEVHNAKTKPREEQFNSTYRVVSVLTVLHQDWLNGKEYKCKVSNKGLPSSIEKTISKAKGQPREPQVYTLPPSQEEMTKNQVSLTCLVKGFYPSDIAVEWESNGQPENNYKTTPPVLDSDGSFFLYSRLTVDKSRWQEGNVFSCSVMHEALHYHVTQKSLSLSL
light: not shown
notes: VH3-IgG4 with M252Y/N434Y/Y436V (EU numbering)
- BINDING AMOUNT (RU) [1]: 92.8 RU
- BINDING AMOUNT (RU) [2]: 367 RU
- BINDING AMOUNT (RU) [3]: 71.8 RU
- BINDING AMOUNT (RU) [4]: 3.4 RU
- BINDING AMOUNT (RU) [5]: 15.5 RU
- BINDING AMOUNT (RU) [6]: 37.5 RU

B3: antibody containing VH3-IgG2-F890 for the heavy chain and L(WT)-CK for the light chain (antibody)
heavy: QVQLQESGPGLVKPSETLSLTCAVSGHSISHDHAWSWVRQPPGEGLEWIGFISYSGITNYNPSLQGRVTISRDNSKNTLYLQMNSLRAEDTAVYYCARSLARTTAMDYWGEGTLVTVSSASTKGPSVFPLAPCSRSTSESTAALGCLVKDYFPEPVTVSWNSGALTSGVHTFPAVLQSSGLYSLSSVVTVPSSNFGTQTYTCNVDHKPSNTKVDKTVERKCCVECPPCPAPPVAGPSVFLFPPKPKDTLYISRTPEVTCVVVDVSHEDPEVQFNWYVDGVEVHNAKTKPREEQFNSTFRVVSVLTVVHQDWLNGKEYKCKVSNKGLPAPIEKTISKTKGQPREPQVYTLPPSREEMTKNQVSLTCLVKGFYPSDIAVEWESNGQPENNYKTTPPMLDSDGSFFLYSKLTVDKSRWQQGNVFSCSVMHEALHYHVTQKSLSLSP
light: not shown
notes: VH3-IgG2 with M252Y/N434Y/Y436V (EU numbering)
- BINDING AMOUNT (RU) [1]: 120 RU
- BINDING AMOUNT (RU) [2]: 19.7 RU
- BINDING AMOUNT (RU) [3]: 31.9 RU
- BINDING AMOUNT (RU) [4]: 9.3 RU
- BINDING AMOUNT (RU) [5]: 28.1 RU
- BINDING AMOUNT (RU) [6]: 204 RU

B4: antibody containing VH3-IgG2 for the heavy chain and L(WT)-CK for the light chain (antibody)
heavy: B3 heavy with Y250M, Y432N, V434Y
light: not shown
- BINDING AMOUNT (RU) [1]: 188 RU
- BINDING AMOUNT (RU) [2]: 38.6 RU
- BINDING AMOUNT (RU) [3]: 55.5 RU
- BINDING AMOUNT (RU) [4]: 16.3 RU
- BINDING AMOUNT (RU) [5]: 50.1 RU
- BINDING AMOUNT (RU) [6]: 266 RU

B7: IL6R-BP087/IL6R-L (antibody, human IgG1, name in EU numbering)
heavy: QVQLQESGPGLVKPSETLSLTCAVSGHSISHDHAWSWVRQPPGEGLEWIGFISYSGITNYNPSLQGRVTISRDNSKNTLYLQMNSLRAEDTAVYYCARSLARTTAMDYWGEGTLVTVSSASTKGPSVFPLAPSSKSTSGGTAALGCLVKDYFPEPVTVSWNSGALTSGVHTFPAVLQSSGLYSLSSVVTVPSSSLGTQTYICNVNHKPSNTKVDKKVEPKSCDKTHTCPPCPAPEYLGGDSVFLFPPKPKDTLMISRTPEVTCVVVDVSHEDPEVKFNWYVDGVEVHNAKTKPREEQYNSTYRVVSVLTVLHQDWLNGKEYKCKVSNKALPKPIEKTISKAKGQPREPQVYTLPPSRDELTKNQVSLTCLVKGFYPSDIAVEWESNGQPENNYKTTPPVLDSDGSFFLYSKLTVDKSRWQQGNVFSCSVMHEALHNHYTQESLSLSP
light: DIQMTQSPSSLSASVGDRVTITCRASQDISSYLNWYQQKPGKAPKLLIYYTSRLHSGVPSRFSGSGSGTDFTFTISSLQPEDIATYYCQQGNTLPYTFGQGTKVEIK
notes: Alterations introduced into IL6R-B3 (EU numbering)
- KD(IIaR)/KD(IIb) [9]: 15

B9: IL6R-PD082/IL6R-L (antibody, human IgG1)
heavy: B7 heavy with Y236L, G239F, M254Y, K332A, N436Y, E441K
light: B7 light
notes: Alterations introduced into IL6R-F11; also called P238D/G237F
- RELATIVE BINDING ACTIVITY FOR FcγRIIaR [7]: 380 relative (IL6R-F652/IL6R-L = 100)
- RELATIVE BINDING ACTIVITY FOR FcγRIIb [8]: 108 relative (IL6R-F652/IL6R-L = 100)

Second part, the binder after the results:

- BINDING AMOUNT (RU) [1]: -0.2 RU
- BINDING AMOUNT (RU) [2]: 1.2 RU
- BINDING AMOUNT (RU) [3]: 0.4 RU
- BINDING AMOUNT (RU) [4]: -1.7 RU
- BINDING AMOUNT (RU) [5]: -0.5 RU
- BINDING AMOUNT (RU) [6]: -0.7 RU
B2: antibody containing VH3-IgG4-F939 for the heavy chain and L(WT)-CK for the light chain (antibody)
heavy: B1 heavy with L234R, S238K
light: not shown
notes: VH3-IgG4 with L235R/S239K/M252Y/N434Y/Y436V (EU numbering)

- BINDING AMOUNT (RU) [1]: 1 RU
- BINDING AMOUNT (RU) [2]: 1.3 RU
- BINDING AMOUNT (RU) [3]: 0.4 RU
- BINDING AMOUNT (RU) [4]: 0.6 RU
- BINDING AMOUNT (RU) [5]: 1.1 RU
- BINDING AMOUNT (RU) [6]: 1 RU
B5: antibody containing VH3-IgG2-F939 for the heavy chain and L(WT)-CK for the light chain (antibody)
heavy: B3 heavy with A234R, S237K
light: not shown
notes: VH3-IgG2 with A235R/S239K/M252Y/N434Y/Y436V (EU numbering)

- RELATIVE BINDING ACTIVITY FOR FcγRIIaR [7]: 100 relative (IL6R-F652/IL6R-L = 100)
- RELATIVE BINDING ACTIVITY FOR FcγRIIb [8]: 100 relative (IL6R-F652/IL6R-L = 100)
B6: IL6R-F652/IL6R-L (antibody, human IgG1)
heavy: B7 heavy with Y236L, M254Y, K332A, N436Y, E441K
light: B7 light
notes: P238D introduced into IL6R-F11 (M252Y/N434Y in IL6R-G1d); also called P238D

- RELATIVE BINDING ACTIVITY FOR FcγRIIaR [7]: 222 relative (IL6R-F652/IL6R-L = 100)
- RELATIVE BINDING ACTIVITY FOR FcγRIIb [8]: 127 relative (IL6R-F652/IL6R-L = 100)
B8: IL6R-PD080/IL6R-L (antibody)
heavy: B7 heavy with Y236L, G239D, M254Y, K332A, N436Y, E441K
light: B7 light
notes: Alterations introduced into IL6R-F11; also called P238D/G237D
